The chains are these.
B1: LINE1-mini (parent)
chain: GGCAGAGCUCAACACAGCGUGGCAAAGUGGCUGUGGCUAGACUGCC

Among the data in the RNAGym collection of RNA variant scans (doi:10.7554/elife.90254) are self-cleavage values, retold here.

The variants in this series derive from B1. Kind of series: self-cleavage, relative activity (ratio to wild type); higher = more cleavage; in vitro, sequencing; the parent is a self-cleaving ribozyme.
Consider G1U G35C, for which the self-cleavage worked out at 0.07.

G1U G35U: the self-cleavage stood at 0.17.

Turning to G1U G35A, the self-cleavage came out at 0.08. As for G1U A39U, the self-cleavage is 0.2. For G1U A39G the value was 0.05. For G1U A39C the value was 0.09. The value for G1U was 0.33.

For G1C, the self-cleavage stood at 0.13. Take G1C C18U: the self-cleavage stood at 0.05.

As to G1C C18A, the self-cleavage was 0.04. As to G1C C18G, the self-cleavage turned out to be 0.03.

Turning to G1C G21A, the self-cleavage turned out to be 0.42. The value for G1C G21C was 0.06.

With G1C G21U, the self-cleavage worked out at 0.17. G1A U43C: the self-cleavage was 0.11. Turning to G1A U43G, the self-cleavage amounted to 0.02. Consider G1A U43A, for which the self-cleavage is 0.05. The value for G1A U34G was 0.29; that for G1A U34A was 0.08. The value for G1A U34C was 0.14; that for G1U C31U was 0.07.

Take G1U C31A: the self-cleavage was determined as 0.07.

For the variant G1U C31G, the self-cleavage worked out at 0.04. The value for G1C G30A was 0.18; that for G1C G30U was 0.06. Take G1C G30C: the self-cleavage came out at 0.04. G1C G27U: the self-cleavage was found to be 0.12. For G1C G27A, the self-cleavage was determined as 0.16. With G1C G27C, the self-cleavage turned out to be 0.14. In the case of G1C G44C, the self-cleavage came out at 0.03.

Consider G1C G44A, for which the self-cleavage was determined as 0.06. In the case of G1C G44U, the self-cleavage was found to be 0.06.

Regarding G1C A12C, the self-cleavage was 0.02. For G1C A12G the value was 0.02; for G1C A12U, 0.06; for G1U G44C, 0.14. As for G1U G44A, the self-cleavage is 0.11. As to G1U G44U, the self-cleavage is 0.15. In the case of G1U G36U, the self-cleavage stood at 0.11.

For G1U G36A, the self-cleavage came to 0.11. For G1U G36C, the self-cleavage came to 0.04.

For the variant G1U A41U, the self-cleavage came out at 0.33. For G1U A41G, the self-cleavage turned out to be 0.1. With G1U A41C, the self-cleavage was found to be 0.05. In the case of G1C C10G, the self-cleavage came out at 0.03. For G1C C10A, the self-cleavage was determined as 0.02. Turning to G1C C10U, the self-cleavage was 0.04.

Consider G1C U9A, for which the self-cleavage worked out at 0.02. With G1C U9G, the self-cleavage was determined as 0.02. For G1C U9C the value was 0.03.

G1U G19U: the self-cleavage amounted to 0.11. G1U G19A: the self-cleavage stood at 0.57. For G1U G19C the value was 0.2; for G1A G36A, 0.18; for G1A G36U, 0.1. As for G1A G36C, the self-cleavage is 0.11. The value for G1U G17A was 0.1. As to G1U G17C, the self-cleavage worked out at 0.05. With G1U G17U, the self-cleavage was found to be 0.06. Take G1U G27C: the self-cleavage worked out at 0.27. Take G1U G27A: the self-cleavage came out at 0.36. On to G1U G27U, for which the self-cleavage is 0.25. The value for G1C C46U was 0.18. With G1C C46G, the self-cleavage came to 0.3. With G1C C46A, the self-cleavage came out at 0.28. For G1A G5C, the self-cleavage was 0.08.

With G1A G5A, the self-cleavage came to 0.2.

Take G1A G5U: the self-cleavage turned out to be 0.08. For G1U G2C the value was 0.16. G1U G2U: the self-cleavage is 0.13. Consider G1U G2A, for which the self-cleavage was 0.38.

On to G1A G30U, for which the self-cleavage came to 1.59. With G1A G30C, the self-cleavage came to 1.51. Turning to G1A G30A, the self-cleavage worked out at 0.85. For G1U U20C, the self-cleavage is 0.22.

With G1U U20A, the self-cleavage came out at 0.31. As to G1U G22U, the self-cleavage amounted to 0.43. For G1U G22C, the self-cleavage came out at 0.23. G1U G22A: the self-cleavage turned out to be 0.25.

In the case of G1U G7C, the self-cleavage was 0.12. Turning to G1U G7A, the self-cleavage worked out at 0.11. For G1U G7U the value was 0.06; for G1A U20A, 1.27. The value for G1A U20C was 0.33; that for G1A U20G was 0.58; that for G1U A6C was 0.51. For G1U A6G the value was 0.07; for G1U A6U, 0.22. Regarding G1C A16U, the self-cleavage was determined as 0.02. For G1C A16G, the self-cleavage amounted to 0.12.

Regarding G1C A16C, the self-cleavage is 0.01.

On to G1C U38G, for which the self-cleavage is 0.01.

As to G1C U38A, the self-cleavage came out at 0.05.

On to G1C U38C, for which the self-cleavage was 0.06.

On to G1U A24G, for which the self-cleavage was 0.25. As to G1U A24U, the self-cleavage came out at 0.32. With G1U A24C, the self-cleavage was determined as 0.36. In the case of G1U G30C, the self-cleavage is 0.27. For G1U G30U the value was 0.59. For the variant G1U G30A, the self-cleavage turned out to be 0.43.

For the variant G1U A14U, the self-cleavage was determined as 0.16. Consider G1U A14G, for which the self-cleavage worked out at 0.12. For the variant G1U A14C, the self-cleavage was determined as 0.03.

Turning to G1C U20A, the self-cleavage worked out at 0.06. The value for G1C U20G was 0.05; that for G1C U20C was 0.04; that for G1C G36U was 0.03.

Consider G1C G36C, for which the self-cleavage worked out at 0.01. G1C G36A: the self-cleavage was 0.05. For G1U G40C the value was 0.04; for G1U G40U, 0.08.

Turning to G1U G40A, the self-cleavage turned out to be 0.04. For G1A U32C, the self-cleavage worked out at 0.11. The value for G1A U32A was 0.09; that for G1A U32G was 0.09; that for G1C C31U was 0.04. For G1C C31A the value was 0.02; for G1C C31G, 0.01; for G1C G5U, 0.02. Take G1C G5C: the self-cleavage turned out to be 0.02.

For G1C G5A, the self-cleavage came out at 0.05. In the case of G1C A26C, the self-cleavage worked out at 0.08. As to G1C A26G, the self-cleavage came to 0.09.

For the variant G1C A26U, the self-cleavage was found to be 0.12.

As to G1U C37G, the self-cleavage worked out at 0.03. For G1U C37U the value was 0.04; for G1U C37A, 0.06; for G1A U28G, 0.6. For G1A U28A, the self-cleavage stood at 0.26. For G1A U28C, the self-cleavage was 0.39. As to G1U A11G, the self-cleavage was determined as 0.02.

As to G1U A11U, the self-cleavage was 0.07. For G1U A11C the value was 0.03.

G1A C45G: the self-cleavage amounted to 0.34. G1A C45A: the self-cleavage came out at 0.82.

On to G1A C45U, for which the self-cleavage turned out to be 1.19. The value for G1U C10A was 0.03; that for G1U C10U was 0.08; that for G1U C10G was 0.03.

Take G1C C13U: the self-cleavage is 0.04. With G1C C13G, the self-cleavage stood at 0.04. Regarding G1C C13A, the self-cleavage was 0.05. With G1U C42G, the self-cleavage stood at 0.04. For the variant G1U C42A, the self-cleavage was determined as 0.07.

Consider G1U C42U, for which the self-cleavage stood at 0.06. The value for G1C C3A was 0.19; that for G1C C3G was 0.1; that for G1C C3U was 0.18. The value for G1U A12C was 0.02; that for G1U A12G was 0.04. The value for G1U A12U was 0.08; that for G1U A25C was 0.21; that for G1U A25U was 0.45.

In the case of G1U A25G, the self-cleavage worked out at 0.21. As for G1A G17U, the self-cleavage came out at 0.13.

Regarding G1A G17C, the self-cleavage came out at 0.18. With G1A G17A, the self-cleavage stood at 0.15. Take G1C U34C: the self-cleavage amounted to 0.03. For the variant G1C U34G, the self-cleavage turned out to be 0.02. Consider G1C U34A, for which the self-cleavage amounted to 0.01. As for G1C G7C, the self-cleavage stood at 0.02. The value for G1C G7U was 0.03; that for G1C G7A was 0.04. Regarding G1C G2C, the self-cleavage came out at 0.15. With G1C G2U, the self-cleavage was found to be 0.08.

As for G1C G2A, the self-cleavage amounted to 0.13. Take G1C G40C: the self-cleavage is 0.03.
